Data on nine molecules can be found in patent US12678474B2, “Screening of fixed-point coupling sites of cysteine-modified antibody-toxin conjugate (TDC)” (SICHUAN BAILI PHARMACEUTICAL CO. LTD., priority 2017, dated 2026).

Positions count from the first letter of the chain named.

To fix the notation:
B1: 2A1-HC-Cys379ins: 2A1 antibody with cysteine inserted at heavy chain position 379 (SEQ ID NO: 38) (antibody)
heavy: DVQLQESGPSLVKPSQSLSLTCTVTGYSITSDFAWNWIRQFPGNKLEWMGYISYSGNTRYNPSLKSRISITRDTSKNQFFLQLNSVTIEDTATYYCVTAGRGFPYWGQGTLVTVSAASTKGPSVFPLAPSSKSTSGGTAALGCLVKDYFPEPVTVSWNSGALTSGVHTFPAVLQSSGLYSLSSVVTVPSSSLGTQTYICNVNHKPSNTKVDKRVEPKSCDKTHTCPPCPAPEFLGGPSVFLFPPKPKDTLMISRTPEVTCVVVDVSHEDPEVKFNWYVDGVEVHNAKTKPREEQYNSTYRVVSVLTVLHQDWLNGKEYKCKVSNKALPAPIEKTISKAKGQPREPQVYTLPPSRDELTKNQVSLTCLVKGFYPSDIAVEWECSNGQPENNYKTTPPVLDSDGSFFLYSKLTVDKSRWQQGNVFSCSVMHEALHNHYTQKSLSLSPG
light: DILMTQSPSSMSVSLGDTVSITCHSSQDINSNIGWLQQRPGKSFKGLIYHGTNLDDEVPSRFSGSGSGADYSLTISSLESEDFADYYCVQYAQFPWTFGGGTKLEIKRTVAAPSVFIFPPSDEQLKSGTASVVCLLNNFYPREAKVQWKVDNALQSGNSQESVTEQDSKDSTYSLSSTLTLSKADYEKHKVYACEVTHQGLSSPVTKSFNRGEC
B2: 2A1-HC-Cys355ins: 2A1 antibody with cysteine inserted at heavy chain position 355 (SEQ ID NO: 32) (antibody)
heavy: DVQLQESGPSLVKPSQSLSLTCTVTGYSITSDFAWNWIRQFPGNKLEWMGYISYSGNTRYNPSLKSRISITRDTSKNQFFLQLNSVTIEDTATYYCVTAGRGFPYWGQGTLVTVSAASTKGPSVFPLAPSSKSTSGGTAALGCLVKDYFPEPVTVSWNSGALTSGVHTFPAVLQSSGLYSLSSVVTVPSSSLGTQTYICNVNHKPSNTKVDKRVEPKSCDKTHTCPPCPAPEFLGGPSVFLFPPKPKDTLMISRTPEVTCVVVDVSHEDPEVKFNWYVDGVEVHNAKTKPREEQYNSTYRVVSVLTVLHQDWLNGKEYKCKVSNKALPAPIEKTISKAKGQPREPQVYTLPPSRDELCTKNQVSLTCLVKGFYPSDIAVEWESNGQPENNYKTTPPVLDSDGSFFLYSKLTVDKSRWQQGNVFSCSVMHEALHNHYTQKSLSLSPG
light: B1 light
B3: 2A1-HC-Cys255ins: 2A1 antibody with cysteine inserted at heavy chain position 255 (SEQ ID NO: 24) (antibody)
heavy: DVQLQESGPSLVKPSQSLSLTCTVTGYSITSDFAWNWIRQFPGNKLEWMGYISYSGNTRYNPSLKSRISITRDTSKNQFFLQLNSVTIEDTATYYCVTAGRGFPYWGQGTLVTVSAASTKGPSVFPLAPSSKSTSGGTAALGCLVKDYFPEPVTVSWNSGALTSGVHTFPAVLQSSGLYSLSSVVTVPSSSLGTQTYICNVNHKPSNTKVDKRVEPKSCDKTHTCPPCPAPEFLGGPSVFLFPPKPKDTLMISRTPECVTCVVVDVSHEDPEVKFNWYVDGVEVHNAKTKPREEQYNSTYRVVSVLTVLHQDWLNGKEYKCKVSNKALPAPIEKTISKAKGQPREPQVYTLPPSRDELTKNQVSLTCLVKGFYPSDIAVEWESNGQPENNYKTTPPVLDSDGSFFLYSKLTVDKSRWQQGNVFSCSVMHEALHNHYTQKSLSLSPG
light: B1 light
B4: 2A1-HC-Cys254ins: 2A1 antibody with cysteine inserted at heavy chain position 254 (SEQ ID NO: 22) (antibody)
heavy: B3 heavy with E257C, C258E
light: B1 light
B5: 2A1-HC-Cys259ins: 2A1 antibody with cysteine inserted at heavy chain position 259 (SEQ ID NO: 28) (antibody)
heavy: B3 heavy with C258V, V259T, T260C, C261V, V262C
light: B1 light
B6: 2A1-HC-Cys386ins: 2A1 antibody with cysteine inserted at heavy chain position 386 (SEQ ID NO: 40) (antibody)
heavy: B1 heavy with C382S, S383N, N384G, G385Q, Q386P, P387E, E388N, N389C
light: B1 light
B7: 2A1-HC-Cys354ins: 2A1 antibody with cysteine inserted at heavy chain position 354 (SEQ ID NO: 30) (antibody)
heavy: B2 heavy with L357C, C358L
light: B1 light
B8: 2A1-HC-Cys258ins: 2A1 antibody with cysteine inserted at heavy chain position 258 (SEQ ID NO: 26) (antibody)
heavy: B3 heavy with C258V, V259T, T260C
light: B1 light
B9: 2A1-HC-Cys357ins: 2A1 antibody with cysteine inserted at heavy chain position 357 (SEQ ID NO: 34) (antibody)
heavy: B2 heavy with C358T, T359K, K360C
light: B1 light

The first test deals with EFGRvIII-overexpressing human glioma cell line U87-EGFRvIII. Put plainly: MTS cytotoxicity (cell viability) assay, U87-EGFRvIII. To be noted: antibodies; 72 hours; read-out: IC50, U87MG-EGFRvIII (MTS). Format: cell-based. As to the method:
(§1) TDC cytotoxic activity was determined via the following experimental procedure: TDC was added to EGFR-overexpressing or […]-expressing human tumor cell culture medium, and cell viability was determined after 72 hours of cell culture. Cell-based in vitro experiments were used to determine cell viability, cytotoxicity and programmed cell death induced by TDC constituted by the present invention.
(§2) In vitro efficacy of antibody-toxin conjugates was determined via a cell proliferation assay. A CellTiter ^96® AqueousOne Solution Cell was Proliferation Assay purchased commercially from Promega Corp. (Madison, WI). CellTiter ^96® Aqueous One Solution Cell Proliferation Assay (a) is a colorimetric method used to detect the number of living cells in cell proliferation and cytotoxicity experiments. The above reagent contains the novel tetrazole compound [3-(4,5-dimethylthiazol-2-yl)-5-(3-carboxymethoxyphenyl)-2-(4-sulfophenyl)-2H-tetrazolium, inner salt; MTS) as well as an electronic coupling agent (phenazine ethosulfate; PES). […] This convenient “single solution” model is an improvement on the first generation of the CellTiter ^96® Aqueous Assay, in which the electronic coupling agent PMS was supplied separately from the MTS solution. MTS (Owen's reagent) is reduced by cellular organisms into a colored formazan product, which can be directly dissolved in culture medium (FIG. 1). This conversion is likely facilitated by NADPH NADH produced by dehydrogenase present in metabolically active cells. For the assay, a small amount of CellTiter ^96® Aqueous One Solution Reagent is added directly to the medium present in the wells of the culture plate, after which incubation is performed for 1 to 4 hours, followed by reading of the absorbance value at 490 nm using a microplate reader.
(§3) The amount of formazan product detected at 490 nm is proportional to the number of viable cells in culture. Because the formazan product of MTS is soluble in tissue culture medium, CellTiter ^96® Aqueous One Solution Assay requires fewer steps than the MTT or INT methods. A431 (EGFR-overexpressing cells) and U87-[…] (an […] mutant stable cell line) were used in the present invention as an investigative system for performing in vitro efficacy assays. In 96-well plates, cells were plated at 6000 cells/well and 24 hours later, antibody spiking was carried out. […] Cell viability was assayed via MTS 72 hours after treatment.
B1: the IC50 is greater than 10 µM.

On to B2, for which the IC50 is greater than 10 µM.

Take B3: the IC50 is greater than 10 µM.

Regarding B4, the IC50 is greater than 10 µM.

For the molecule B5, the IC50 is greater than 10 µM.

For B6, the IC50 is greater than 10 µM.

With B7, the IC50 was greater than 10 µM.

With B8, the IC50 was greater than 10 µM.

As for B9, the IC50 was greater than 10 µM.

The target in the next test is T1, Recombinant EGFRVIII-His*6 antigen (Homo sapiens, UniProt P00533, DELINS30-297G).
T1 construct: His*6
Put plainly: ELISA relative affinity for EGFRvIII.
Conditions: not given
Type of test: binding. An excerpt:
Insertion Mutation Modification and Parent Antibody 2A1 for EGFRvIII • ELISA was used to compare the relative affinities of 2A1-LC-Cys110ins-mc-vc-PAB-MMAE TDC, 2A1-LC-Cys111ins-mc-vc-PAB-MMAE TDC, 2A1-LC-Cys142ins-mc-vc-PAB-MMAE TDC, 2A1-HC-Cys254ins-mc-vc-PAB-MMAE TDC, 2A1-HC-Cys255ins-mc-vc-PAB-MMAE TDC, 2A1-HC-Cys258ins-mc-vc-PAB-MMAE TDC, 2A1-HC-Cys259ins-mc-vc-PAB-MMAE TDC, 2A1-HC-Cys354ins-mc-vc-PAB-MMAE TDC, 2A1-HC-Cys355ins-mc-vc-PAB-MMAE TDC, 2A1-HC-Cys357ins-mc-vc-PAB-MMAE TDC, 2A1-HC-Cys378ins-mc-vc-PAB-MMAE TDC, 2A1-HC-Cys379ins-mc-vc-PAB-MMAE TDC, 2A1-HC-Cys386ins-mc-vc-PAB-MMAE TDC, 2A1-HC-Cys387ins-mc-vc-PAB-MMAE TDC, 2A1-HC-Cys410ins-mc-vc-PAB-MMAE TDC, and 2A1 for EGFRvIII. The specific process used was as follows:
Recombinant […]-His*6 antigen was used to coat plates; fish skin gelatin was used as a seal; dilution of each insertion mutant antibody was performed separately, up to a maximum concentration 10 μg/ml and a 4-fold gradient dilution was performed for a total of 11 concentrations; HRP-labeled secondary antibodies were used for incubation; TMB was used for development and absorption detection was performed at 450 nm.
In general terms: ELISA stands for enzyme-linked immunosorbent assay.
Consider B1, for which the “Affinity for EGFRvIII relative to 2A1 (in words)” value was “maintained 2A1 affinity”.

On to B2, for which the “Affinity for EGFRvIII relative to 2A1 (in words)” value is recorded as “maintained 2A1 affinity”.

Turning to B3, the “Affinity for EGFRvIII relative to 2A1 (in words)” value was “maintained 2A1 affinity”.

For the molecule B4, the “Affinity for EGFRvIII relative to 2A1 (in words)” value is listed as “maintained 2A1 affinity”.

As to B5, the “Affinity for EGFRvIII relative to 2A1 (in words)” value is recorded as “maintained 2A1 affinity”.

With B6, the “Affinity for EGFRvIII relative to 2A1 (in words)” value is reported as “maintained 2A1 affinity”.

For the molecule B7, the “Affinity for EGFRvIII relative to 2A1 (in words)” value was “maintained 2A1 affinity”.

Regarding B8, the “Affinity for EGFRvIII relative to 2A1 (in words)” value is on record as “maintained 2A1 affinity”.

Still in this test, the particulars now being: EGFRvIII-coated plates, A450, read-out: EC50 (nM), mutant antibody affinity.
For the molecule B1, the EC50 turned out to be 0.0409 nM.

As for B2, the EC50 was found to be 0.0415 nM.

Consider B3, for which the EC50 stood at 0.039 nM.

For the molecule B4, the EC50 came out at 0.0456 nM.

With B5, the EC50 is 0.0431 nM.

Consider B6, for which the EC50 is 0.0435 nM.

As for B7, the EC50 was determined as 0.0405 nM.

Consider B8, for which the EC50 was 0.0423 nM.

For B9, the EC50 is 0.0403 nM.

The next test has as its system EGFRwt-overexpressing human skin squamous cell carcinoma cell line A431. Put plainly: MTS cytotoxicity (cell viability) assay, A431. Type of test: cell-based. To be noted: antibodies; 72 hours. On the procedure: as §1, §2, §3
B1 displayed an IC50 greater than 10 µM.

B2 yielded an IC50 greater than 10 µM.

For B3, the IC50 is greater than 10 µM.

In turn, B4 registered an IC50 greater than 10 µM.

B5 yielded an IC50 greater than 10 µM.

In turn, B6 displayed an IC50 greater than 10 µM.

On to B7, for which the IC50 was greater than 10 µM.

B8 registered an IC50 greater than 10 µM.

The molecule B9 displayed an IC50 greater than 10 µM.

One may read the IC50 as the midpoint of a concentration-inhibition curve. For orientation: EC50 means the concentration needed to bring the measured effect to its halfway point.
